According to publication PMC3694354 (Biochemistry, 2008):
One block for each molecule: values may come before it.

Columns and labels:
[1] = molecular target: T1, 4-chlorobenzoate:CoA ligase (CBL; CBAL) (Alcaligenes sp. AL3007, UniProt Q8GN86); experiment: coupled AMP-forming assay, inhibition kinetics; type: biochemical
T1 sequence (Q8GN86 1-504): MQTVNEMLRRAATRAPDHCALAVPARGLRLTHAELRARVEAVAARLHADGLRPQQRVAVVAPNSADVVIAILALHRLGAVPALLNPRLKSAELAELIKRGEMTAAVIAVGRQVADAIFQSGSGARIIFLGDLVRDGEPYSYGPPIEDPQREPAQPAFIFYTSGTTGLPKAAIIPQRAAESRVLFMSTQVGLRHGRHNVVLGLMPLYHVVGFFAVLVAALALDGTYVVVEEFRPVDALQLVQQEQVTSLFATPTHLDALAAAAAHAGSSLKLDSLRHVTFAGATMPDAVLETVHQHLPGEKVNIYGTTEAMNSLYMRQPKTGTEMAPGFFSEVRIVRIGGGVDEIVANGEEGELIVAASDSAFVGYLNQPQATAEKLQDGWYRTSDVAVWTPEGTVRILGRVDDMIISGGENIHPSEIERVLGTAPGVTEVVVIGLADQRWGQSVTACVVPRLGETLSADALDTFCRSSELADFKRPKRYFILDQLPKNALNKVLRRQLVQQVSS

[2] = molecular target: T1, 4-chlorobenzoate:CoA ligase (CBL; CBAL); experiment: direct spectrophotometric assay at […] nm, inhibition kinetics; type: biochemical
[3] = substrate: CC(C)(COP(=O)(O)OP(=O)(O)OC[C@H]1O[C@@H](n2cnc3c(N)ncnc32)[C@H](O)[C@@H]1OP(=O)(O)O)[C@@H](O)C(=O)NCCC(=O)NCCS; experiment: coupled AMP-forming assay, initial velocity; type: biochemical, Alcaligenes sp. AL3007; conditions: 3.5 mM ATP, 4-methylbenzoate varied, 15 mM MgCl2, pH 7.5, 25 °C
[4] = substrate: Nc1ncnc2c1ncn2[C@@H]1O[C@H](COP(=O)(O)OP(=O)(O)OP(=O)(O)O)[C@@H](O)[C@H]1O; experiment: coupled AMP-forming assay, initial velocity; type: biochemical, Alcaligenes sp. AL3007; conditions: 200 μM 4-methylbenzoate, CoA varied, 15 mM MgCl2, pH 7.5, 25 °C
[5] = substrate: Cc1ccc(C(=O)O)cc1; experiment: purified protein; conditions: 3.5 mM ATP, CoA varied, 15 mM MgCl2, pH 7.5, 25 °C

Molecule: CC(C)(COP(=O)(O)OP(=O)(O)OC[C@H]1O[C@@H](n2cnc3c(N)ncnc32)[C@H](O)[C@@H]1OP(=O)(O)O)[C@@H](O)C(=O)NCCC(=O)NCCSCC(=O)c1ccc(Cl)cc1 [4-CP-CoA, 4-chlorophenacyl-CoA]
Ki [1]: 21 ± 8 µM

Molecule: O=P(O)(O)OP(=O)(O)O [PPi]
Ki [1]: 95 ± 10 µM

Ki [1]: 45 ± 10 µM
Molecule: CC(C)(COP(=O)(O)OP(=O)(O)OC[C@H]1O[C@@H](n2cnc3c(N)ncnc32)[C@H](O)[C@@H]1OP(=O)(O)O)[C@@H](O)C(=O)NCCC(=O)NCCSCc1ccc(Cl)cc1 [4-chlorobenzyl-CoA]

Ki [2]: 120 ± 20 µM
Molecule: Nc1ncnc2c1ncn2[C@@H]1O[C@H](COP(=O)(O)O)[C@@H](O)[C@H]1O [AMP]

B1: 4-chlorobenzoate:CoA ligase (CBL; CBAL) (Alcaligenes sp. AL3007) (protein)
chain: MQTVNEMLRRAATRAPDHCALAVPARGLRLTHAELRARVEAVAARLHADGLRPQQRVAVVAPNSADVVIAILALHRLGAVPALLNPRLKSAELAELIKRGEMTAAVIAVGRQVADAIFQSGSGARIIFLGDLVRDGEPYSYGPPIEDPQREPAQPAFIFYTSGTTGLPKAAIIPQRAAESRVLFMSTQVGLRHGRHNVVLGLMPLYHVVGFFAVLVAALALDGTYVVVEEFRPVDALQLVQQEQVTSLFATPTHLDALAAAAAHAGSSLKLDSLRHVTFAGATMPDAVLETVHQHLPGEKVNIYGTTEAMNSLYMRQPKTGTEMAPGFFSEVRIVRIGGGVDEIVANGEEGELIVAASDSAFVGYLNQPQATAEKLQDGWYRTSDVAVWTPEGTVRILGRVDDMIISGGENIHPSEIERVLGTAPGVTEVVVIGLADQRWGQSVTACVVPRLGETLSADALDTFCRSSELADFKRPKRYFILDQLPKNALNKVLRRQLVQQVSS
Km [3]: 160 ± 20 µM | kcat [3]: 8.0 ± 0.6 s⁻¹ | Km [4]: 180 ± 15 µM | kcat [4]: 8.2 ± 0.3 s⁻¹ | Km [5]: 30 ± 5 µM | kcat [5]: 8.0 ± 0.6 s⁻¹
